One block for each molecule: values may come before it. Square brackets hold non-standard residues; d marks the D form. Ends that are not written are not given here. pT = C[C@@H](OP(=O)(O)O)[C@H](N)C(=O)O
Experiments:
[1] = molecular target: μ2T156-phosphorylated AP2, endogenous in RPE cells (human (endogenous in RPE)) (UniProt O95782); experiment: co-IP; native co-immunoprecipitation with anti-AP2α antibody AP6 on protein G-Sepharose from RPE cell lysates (0.1% NP40), overnight at 4°C; western blot
[2] = molecular target: Recombinant T156-phosphorylated AP2 core (UniProt P18484); experiment: ITC; Nano ITC, 10°C, 100 mM TRIS pH 8, 250 mM NaCl, 0.25 mM TCEP; 0.05-0.1 mM Pcore in the cell, 2-3 mM PHear titrated in
[3] = molecular target: NECAP1 PHear domain, 1-133 (UniProt Q8NC96); experiment: ITC; conditions: reference: unphosphorylated peptide …; sites T156
[4] = molecular target: TGN38 cytoplasmic domain peptide, lipid-linked, in PtdIns4,5P2 liposomes; experiment: SPR; BIAcore T200, liposomes (PC/PE with 4% PtdIns4,5P2 and 2% lipid-linked peptide) on an L1 sensor; core or Pcore injected at 50 nM to 50 μM; 10 mM Tris pH 8.7, 250 mM NaCl, 1 mM DTT; apparent constants from fast and slow dissociation amplitudes
[5] = molecular target: T1, NECAP1 PHear (1-133) R102A (UniProt Q8NC96 1-133, R102A); experiment: ITC
T1 sequence: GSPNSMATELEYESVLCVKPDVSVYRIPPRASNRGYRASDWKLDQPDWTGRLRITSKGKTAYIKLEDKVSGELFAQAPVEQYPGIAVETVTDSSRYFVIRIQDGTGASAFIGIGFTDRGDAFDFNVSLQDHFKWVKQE

[6] = molecular target: T2, NECAP1 PHear (1-133) R32D (UniProt Q8NC96 1-133, R32D); experiment: ITC
T2 sequence: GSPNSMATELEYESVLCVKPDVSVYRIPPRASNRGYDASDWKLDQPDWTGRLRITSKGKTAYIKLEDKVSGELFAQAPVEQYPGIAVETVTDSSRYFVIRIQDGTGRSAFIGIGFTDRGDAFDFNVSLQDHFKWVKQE

[7] = molecular target: T3, NECAP1 PHear (1-133) S88A (UniProt Q8NC96 1-133, S88A); experiment: ITC
T3 sequence: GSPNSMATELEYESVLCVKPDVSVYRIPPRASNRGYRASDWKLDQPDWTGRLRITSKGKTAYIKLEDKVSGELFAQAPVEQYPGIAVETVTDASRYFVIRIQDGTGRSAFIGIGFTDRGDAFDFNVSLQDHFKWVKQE

[8] = molecular target: NECAP1 PHear domain (NECAP 1-133), wild type (UniProt Q8NC96); experiment: ITC; Nano ITC, 12°C, 75 mM HEPES pH 7.4, 0.25 mM TCEP; PHear domains in the cell, peptides at 1-5 mM titrated in
[9] = molecular target: T4, NECAP1 PHear (1-133) R102A (UniProt Q8NC96 1-133, R102A); experiment: as above; conditions: both partners purified
T4 construct: NECAP1 PHear domain, residues 1-133; source: E. coli BL21DE3 pLysS, purified (GST sepharose, thrombin cleavage, gel filtration); not shown: GST, N-terminal, cleaved
T4 sequence: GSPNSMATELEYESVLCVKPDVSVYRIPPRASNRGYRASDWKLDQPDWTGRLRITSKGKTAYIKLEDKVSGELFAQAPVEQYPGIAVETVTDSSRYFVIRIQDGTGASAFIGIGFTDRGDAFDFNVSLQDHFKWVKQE

[10] = molecular target: T5, NECAP1 PHear (1-133) R32D (UniProt Q8NC96 1-133, R32D); experiment: as above; conditions: both partners purified
T5 construct: NECAP1 PHear domain, residues 1-133; Not in the plasmid list; source: E. coli BL21DE3 pLysS, purified (GST sepharose, thrombin cleavage, gel filtration); not shown: GST, N-terminal, cleaved
T5 sequence: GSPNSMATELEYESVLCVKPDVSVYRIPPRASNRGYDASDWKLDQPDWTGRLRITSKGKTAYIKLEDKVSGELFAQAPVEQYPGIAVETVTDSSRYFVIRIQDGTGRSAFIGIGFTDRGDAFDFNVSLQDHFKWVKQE

[11] = molecular target: T6, NECAP1 PHear (1-133) S88A (UniProt Q8NC96 1-133, S88A); experiment: as above; conditions: both partners purified
T6 construct: NECAP1 PHear domain, residues 1-133; source: E. coli BL21DE3 pLysS, purified (GST sepharose, thrombin cleavage, gel filtration); not shown: GST, N-terminal, cleaved
T6 sequence: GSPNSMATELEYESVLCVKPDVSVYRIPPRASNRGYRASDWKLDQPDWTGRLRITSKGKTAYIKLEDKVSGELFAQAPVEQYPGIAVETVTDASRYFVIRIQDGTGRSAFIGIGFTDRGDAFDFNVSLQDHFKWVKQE

[12] = molecular target: T7, NECAP1 PHear domain (NECAP 1-133), wild type (UniProt Q8NC96 1-133); experiment: ITC; + FxDxF peptide
T7 chain: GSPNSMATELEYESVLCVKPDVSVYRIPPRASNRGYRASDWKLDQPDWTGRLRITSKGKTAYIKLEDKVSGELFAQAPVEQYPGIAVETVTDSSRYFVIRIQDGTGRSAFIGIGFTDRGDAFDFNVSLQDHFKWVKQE

Chain of Recombinant T156-phosphorylated AP2 core (UniProt P18484) (P18484 whole entry, chain 1 of 4, the tested form may be a part): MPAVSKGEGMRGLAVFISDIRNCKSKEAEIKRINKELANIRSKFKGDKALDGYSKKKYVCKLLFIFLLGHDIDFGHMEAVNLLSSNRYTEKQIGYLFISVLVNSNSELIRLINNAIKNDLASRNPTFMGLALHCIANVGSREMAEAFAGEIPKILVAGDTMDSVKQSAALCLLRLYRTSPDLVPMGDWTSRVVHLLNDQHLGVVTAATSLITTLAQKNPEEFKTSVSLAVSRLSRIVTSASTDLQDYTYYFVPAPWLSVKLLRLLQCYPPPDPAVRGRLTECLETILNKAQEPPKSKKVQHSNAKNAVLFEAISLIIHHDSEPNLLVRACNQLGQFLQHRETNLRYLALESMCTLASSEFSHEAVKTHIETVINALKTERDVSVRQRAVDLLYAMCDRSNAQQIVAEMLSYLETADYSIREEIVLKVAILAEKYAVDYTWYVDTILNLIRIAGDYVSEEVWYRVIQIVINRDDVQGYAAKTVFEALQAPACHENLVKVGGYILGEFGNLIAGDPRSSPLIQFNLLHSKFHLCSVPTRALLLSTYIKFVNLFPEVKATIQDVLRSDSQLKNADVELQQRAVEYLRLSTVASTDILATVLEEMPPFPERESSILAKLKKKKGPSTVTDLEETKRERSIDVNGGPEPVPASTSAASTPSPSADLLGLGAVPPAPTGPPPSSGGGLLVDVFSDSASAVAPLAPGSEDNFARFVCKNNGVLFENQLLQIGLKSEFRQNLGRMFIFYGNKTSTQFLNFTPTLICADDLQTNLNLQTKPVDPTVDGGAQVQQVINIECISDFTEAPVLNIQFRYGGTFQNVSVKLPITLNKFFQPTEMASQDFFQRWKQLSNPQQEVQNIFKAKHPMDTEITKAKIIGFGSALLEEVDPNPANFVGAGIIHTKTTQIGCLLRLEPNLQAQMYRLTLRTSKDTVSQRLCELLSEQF
Chain of Recombinant T156-phosphorylated AP2 core (UniProt P18484) (P63010 1-592, chain 2 of 4, further chain): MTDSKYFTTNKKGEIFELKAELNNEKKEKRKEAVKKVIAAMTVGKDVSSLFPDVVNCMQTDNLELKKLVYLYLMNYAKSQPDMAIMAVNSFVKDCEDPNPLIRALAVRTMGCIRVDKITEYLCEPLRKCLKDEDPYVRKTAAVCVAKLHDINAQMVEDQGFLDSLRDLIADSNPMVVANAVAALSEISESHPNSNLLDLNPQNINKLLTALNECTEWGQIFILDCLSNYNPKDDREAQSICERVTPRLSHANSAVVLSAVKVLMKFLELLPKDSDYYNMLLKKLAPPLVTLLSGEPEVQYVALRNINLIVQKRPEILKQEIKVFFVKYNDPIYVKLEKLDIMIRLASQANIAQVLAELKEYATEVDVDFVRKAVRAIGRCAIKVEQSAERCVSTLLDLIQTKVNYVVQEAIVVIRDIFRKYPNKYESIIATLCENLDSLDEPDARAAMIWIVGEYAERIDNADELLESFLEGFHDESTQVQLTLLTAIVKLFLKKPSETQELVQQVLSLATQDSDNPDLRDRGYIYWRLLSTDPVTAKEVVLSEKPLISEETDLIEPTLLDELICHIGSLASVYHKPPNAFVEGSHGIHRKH
Chain of Recombinant T156-phosphorylated AP2 core (UniProt P18484) (P84092 whole entry, chain 3 of 4, further chain, the tested form may be a part): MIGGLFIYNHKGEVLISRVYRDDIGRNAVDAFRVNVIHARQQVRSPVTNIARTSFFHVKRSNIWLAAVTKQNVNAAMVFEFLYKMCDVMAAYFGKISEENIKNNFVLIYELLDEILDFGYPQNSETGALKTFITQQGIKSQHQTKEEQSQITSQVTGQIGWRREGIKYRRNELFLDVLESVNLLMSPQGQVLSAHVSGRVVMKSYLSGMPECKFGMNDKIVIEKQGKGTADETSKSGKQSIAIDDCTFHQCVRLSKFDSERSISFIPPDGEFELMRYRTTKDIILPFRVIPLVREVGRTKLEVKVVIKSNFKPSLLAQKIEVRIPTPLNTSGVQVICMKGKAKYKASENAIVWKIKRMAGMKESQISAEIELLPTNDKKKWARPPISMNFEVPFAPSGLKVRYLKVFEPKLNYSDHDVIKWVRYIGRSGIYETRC
Chain of Recombinant T156-phosphorylated AP2 core (UniProt P18484) (P62743 whole entry, chain 4 of 4, further chain, the tested form may be a part): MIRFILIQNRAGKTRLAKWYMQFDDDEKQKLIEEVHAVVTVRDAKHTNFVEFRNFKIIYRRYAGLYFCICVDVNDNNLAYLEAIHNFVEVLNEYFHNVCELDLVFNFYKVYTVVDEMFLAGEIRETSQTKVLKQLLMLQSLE
Chain of μ2T156-phosphorylated AP2, endogenous in RPE cells (human (endogenous in RPE)) (O95782 whole entry, chain 1 of 4): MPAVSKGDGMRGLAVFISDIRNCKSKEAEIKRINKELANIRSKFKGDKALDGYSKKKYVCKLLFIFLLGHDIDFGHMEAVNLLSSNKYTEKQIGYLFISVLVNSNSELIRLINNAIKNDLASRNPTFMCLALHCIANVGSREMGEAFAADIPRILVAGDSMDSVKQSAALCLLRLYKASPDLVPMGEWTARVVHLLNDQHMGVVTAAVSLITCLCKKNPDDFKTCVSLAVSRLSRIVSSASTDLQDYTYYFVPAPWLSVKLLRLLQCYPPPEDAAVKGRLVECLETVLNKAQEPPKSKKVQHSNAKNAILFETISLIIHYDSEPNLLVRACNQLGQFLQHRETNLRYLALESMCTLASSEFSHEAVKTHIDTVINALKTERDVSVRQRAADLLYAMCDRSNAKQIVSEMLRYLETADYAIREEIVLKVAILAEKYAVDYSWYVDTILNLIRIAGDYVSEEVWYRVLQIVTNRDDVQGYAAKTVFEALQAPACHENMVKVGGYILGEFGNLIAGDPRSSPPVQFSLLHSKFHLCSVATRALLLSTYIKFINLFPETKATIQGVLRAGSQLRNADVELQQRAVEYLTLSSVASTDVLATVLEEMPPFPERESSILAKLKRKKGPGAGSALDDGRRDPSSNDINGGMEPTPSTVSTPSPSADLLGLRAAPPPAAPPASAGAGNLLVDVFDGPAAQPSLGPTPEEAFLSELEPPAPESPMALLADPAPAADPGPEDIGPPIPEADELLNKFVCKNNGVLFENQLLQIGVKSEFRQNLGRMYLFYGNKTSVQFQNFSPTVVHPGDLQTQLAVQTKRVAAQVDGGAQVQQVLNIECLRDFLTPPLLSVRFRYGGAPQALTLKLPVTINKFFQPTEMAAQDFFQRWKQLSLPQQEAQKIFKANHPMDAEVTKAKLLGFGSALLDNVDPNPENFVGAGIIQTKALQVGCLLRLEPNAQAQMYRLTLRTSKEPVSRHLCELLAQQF
Chain of μ2T156-phosphorylated AP2, endogenous in RPE cells (human (endogenous in RPE)) (P63010 whole entry, chain 2 of 4, further chain): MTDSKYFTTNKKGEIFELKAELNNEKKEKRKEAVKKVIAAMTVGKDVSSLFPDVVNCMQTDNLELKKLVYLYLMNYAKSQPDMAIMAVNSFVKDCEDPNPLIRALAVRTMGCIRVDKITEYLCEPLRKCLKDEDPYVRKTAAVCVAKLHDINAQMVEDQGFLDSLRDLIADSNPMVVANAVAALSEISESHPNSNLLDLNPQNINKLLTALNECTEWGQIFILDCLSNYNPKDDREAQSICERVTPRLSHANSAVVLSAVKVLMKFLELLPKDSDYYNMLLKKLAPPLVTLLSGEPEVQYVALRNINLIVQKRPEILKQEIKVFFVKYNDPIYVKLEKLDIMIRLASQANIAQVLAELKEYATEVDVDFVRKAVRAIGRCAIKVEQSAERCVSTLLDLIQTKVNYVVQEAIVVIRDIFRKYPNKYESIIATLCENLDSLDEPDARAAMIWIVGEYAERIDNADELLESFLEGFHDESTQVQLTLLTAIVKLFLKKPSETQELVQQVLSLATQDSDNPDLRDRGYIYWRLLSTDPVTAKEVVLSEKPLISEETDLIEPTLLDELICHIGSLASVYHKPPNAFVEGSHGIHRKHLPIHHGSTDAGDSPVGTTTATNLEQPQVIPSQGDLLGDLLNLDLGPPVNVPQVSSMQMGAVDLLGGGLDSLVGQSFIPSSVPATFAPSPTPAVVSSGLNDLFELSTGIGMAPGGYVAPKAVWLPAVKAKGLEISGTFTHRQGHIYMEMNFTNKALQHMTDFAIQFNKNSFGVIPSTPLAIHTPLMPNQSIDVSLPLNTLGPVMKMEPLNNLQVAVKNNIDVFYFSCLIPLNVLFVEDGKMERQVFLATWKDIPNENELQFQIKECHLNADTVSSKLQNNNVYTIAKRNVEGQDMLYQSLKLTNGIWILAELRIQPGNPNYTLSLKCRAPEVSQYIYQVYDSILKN
Chain of μ2T156-phosphorylated AP2, endogenous in RPE cells (human (endogenous in RPE)) (Q96CW1 whole entry, chain 3 of 4, further chain): as the sequence (P84092 whole entry, chain 3 of 4, further chain, the tested form may be a part) above
Chain of μ2T156-phosphorylated AP2, endogenous in RPE cells (human (endogenous in RPE)) (P53680 whole entry, chain 4 of 4, further chain): as the sequence (P62743 whole entry, chain 4 of 4, further chain, the tested form may be a part) above

Molecule: mRuby2-Flag-GGGS-NECAP1 R90A (from UniProt Q8NC96-1 1-275) (natural protein)
percent reduction in binding against NECAP1-mRuby2 WT [1]: 60%

Molecule: AP2 μ2 subunit (recombinant AP2 core / Pcore, GST-μ2 linkers, μ2 linker peptides) μ2 linker, 149-163 (from UniProt P84092) pT156 peptide
KD [3]: gained; reference no binding detected

B1: T156-phosphorylated μ2 linker peptide (residues 149–163) (peptide)
peptide: SQITSQV[pT]GQIGWRR
notes: also called Peptide μ2linker Phos; phosphorylated μ2 peptide; source: synthetic peptide (Genscript)
Kd [5]: 57 µM
Kd [6]: 126 µM
Kd [7]: > 300 µM
Kd [8]: 55 µM
binding result [9]: binds
binding result [10]: binds
binding result [11]: binds
Kd [12]: 44.9 µM

Results, then the molecule that gave them:

Kd [2]: 8 µM
Molecule: NECAP1 PHear domain (NECAP 1-133), wild type (from UniProt Q8NC96 1-133) (domain or fragment)

fold increase in liposome-binding affinity against the unphosphorylated core [4]: 3 fold
Molecule: Recombinant T156-phosphorylated AP2 core (from UniProt P18484 1-938; P63010 1-592; P84092 1-435; P62743 1-142) (complex)

Source: publication PMC6706699 (Developmental Cell, 2019)
